US7253271 (REGENTS OF THE UNIVERSITY OF MICHIGAN, dated 2007)

What was measured:
[1] = target: T1, human ClC-Kb chloride channel (human, UniProt P51801 1-687); assay: inferred from co-expression (currents, colocalisation); no direct binding assay
T1 construct: whole, on cells; Expressed from cRNA in Xenopus oocytes or from cDNA in tsA201 cells; also called CIC-Kb; CLCNKB
T1 sequence (looked up): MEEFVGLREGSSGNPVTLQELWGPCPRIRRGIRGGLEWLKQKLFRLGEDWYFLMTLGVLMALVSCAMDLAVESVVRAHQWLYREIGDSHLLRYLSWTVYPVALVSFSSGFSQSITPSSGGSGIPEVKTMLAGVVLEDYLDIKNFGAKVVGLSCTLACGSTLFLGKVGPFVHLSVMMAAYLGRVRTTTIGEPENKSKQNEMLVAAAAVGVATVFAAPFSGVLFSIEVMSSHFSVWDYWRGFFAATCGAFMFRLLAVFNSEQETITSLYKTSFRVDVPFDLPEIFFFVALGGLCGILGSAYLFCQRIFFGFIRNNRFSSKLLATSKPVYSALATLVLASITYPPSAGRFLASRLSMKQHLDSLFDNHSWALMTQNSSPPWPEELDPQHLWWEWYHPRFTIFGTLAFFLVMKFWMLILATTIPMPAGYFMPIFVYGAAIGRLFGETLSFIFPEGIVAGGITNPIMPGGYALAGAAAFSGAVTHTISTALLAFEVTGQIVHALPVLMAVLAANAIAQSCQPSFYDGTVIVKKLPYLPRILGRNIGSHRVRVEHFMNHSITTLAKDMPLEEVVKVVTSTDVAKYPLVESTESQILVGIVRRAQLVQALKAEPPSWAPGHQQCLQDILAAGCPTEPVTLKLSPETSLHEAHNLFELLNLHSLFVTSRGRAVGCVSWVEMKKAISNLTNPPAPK

[2] = target: T2, human ClC-Ka chloride channel (human, UniProt P51800 1-687); assay: inferred from co-expression (currents, surface expression, colocalisation); no direct binding assay
T2 construct: whole, on cells; Expressed from cRNA in Xenopus oocytes or from cDNA in tsA201 cells; also called CIC-Ka; CLCNKA
T2 sequence (looked up): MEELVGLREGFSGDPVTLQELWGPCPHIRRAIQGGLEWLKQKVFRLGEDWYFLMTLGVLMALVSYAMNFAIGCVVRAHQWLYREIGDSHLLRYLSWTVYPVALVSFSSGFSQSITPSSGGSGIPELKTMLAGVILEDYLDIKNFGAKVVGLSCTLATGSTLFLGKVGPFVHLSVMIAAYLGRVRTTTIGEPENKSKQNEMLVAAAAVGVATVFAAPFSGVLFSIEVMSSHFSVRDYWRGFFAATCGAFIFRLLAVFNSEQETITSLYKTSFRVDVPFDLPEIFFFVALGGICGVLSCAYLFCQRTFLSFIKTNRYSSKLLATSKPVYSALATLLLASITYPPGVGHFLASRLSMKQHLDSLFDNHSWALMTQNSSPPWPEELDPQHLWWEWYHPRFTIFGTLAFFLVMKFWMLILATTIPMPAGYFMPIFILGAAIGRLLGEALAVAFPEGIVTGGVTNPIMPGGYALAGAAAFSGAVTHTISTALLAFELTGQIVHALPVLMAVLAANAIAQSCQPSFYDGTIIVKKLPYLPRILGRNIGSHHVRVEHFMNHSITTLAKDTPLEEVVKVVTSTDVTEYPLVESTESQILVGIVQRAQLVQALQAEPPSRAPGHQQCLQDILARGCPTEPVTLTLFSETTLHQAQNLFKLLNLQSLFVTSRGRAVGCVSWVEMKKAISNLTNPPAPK

B1: barttin (BSND protein), wild type, human (other)
chain: MADEKTFRIGFIVLGLFLLALGTFLMSHDRPQVYGTFYAMGSVMVIGGIIWSMCQCYPKITFVPADSDFQGILSPKAMGLLENGLAAEMKSPSPQPPYVRLWEEAAYDQSLPDFSHIQMKVMSYSEDHRSLLAPEMGQPKLGTSDGGEGGPGDVQAWMEAAVVIHKGSDESEGERRLTQSWPGPLACPQGPAPLASFQDDLDMDSSEGSSPNASPHDREEACSPQQEPQGCRCPLDRFQDFALIDAPTLEDEPQEGQQWEIALPNNWQRYPRTKVEEKEASDTGGEEPEKEEEDLYYGLPDGAGDLLPDKELGFEPDTQG
notes: Expressed in Xenopus oocytes, tsA201 cells or other transfected cells
binding result [1]: binds
binding result [2]: binds
